Usually Kd stands for the constant that tells how readily two partners part at equilibrium. Low readings indicate higher affinity, high ones lower affinity. In general, koff refers to the rate constant with which the complex falls apart. A low value points to slow dissociation. What is called kon is a measure of how fast the partners come together. The low end stands for slow association, the high end for fast association.

Consider two substances from article PMC4673700.

Assay [1] addresses GST-fused galectin-1 protein (human) (UniProt P09382).
Assay [2] has as its target PNGase F-treated aflibercept (human). Put plainly: BLI; BLItz; aflibercept, PNGase F-treated aflibercept, VEGFR1-Fc or VEGFR2-Fc immobilised on Protein A-coated biosensors; GST-galectin-1 as analyte at various concentrations; PBS; values of empty sensors subtracted. (In general: BLI is a label-free optical method that tracks binding on a fibre tip over time.)
The target is the same in assay [3]. Described as above. This is another data set of the same source.
For assay [4], the target named is Aflibercept (human). Described as above.

Where two headings read alike, the source gives them in different places.

Sequence of GST-fused galectin-1 protein (P09382 whole entry, the tested form may be a part): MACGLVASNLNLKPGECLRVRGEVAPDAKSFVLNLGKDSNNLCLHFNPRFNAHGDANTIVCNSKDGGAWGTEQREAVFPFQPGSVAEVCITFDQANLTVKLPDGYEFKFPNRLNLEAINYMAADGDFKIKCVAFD
Sequence of GST-fused galectin-1 protein (human) (P09382 whole entry, the tested form may be a part): as above
Sequence of Aflibercept (Fc fusion) (chain): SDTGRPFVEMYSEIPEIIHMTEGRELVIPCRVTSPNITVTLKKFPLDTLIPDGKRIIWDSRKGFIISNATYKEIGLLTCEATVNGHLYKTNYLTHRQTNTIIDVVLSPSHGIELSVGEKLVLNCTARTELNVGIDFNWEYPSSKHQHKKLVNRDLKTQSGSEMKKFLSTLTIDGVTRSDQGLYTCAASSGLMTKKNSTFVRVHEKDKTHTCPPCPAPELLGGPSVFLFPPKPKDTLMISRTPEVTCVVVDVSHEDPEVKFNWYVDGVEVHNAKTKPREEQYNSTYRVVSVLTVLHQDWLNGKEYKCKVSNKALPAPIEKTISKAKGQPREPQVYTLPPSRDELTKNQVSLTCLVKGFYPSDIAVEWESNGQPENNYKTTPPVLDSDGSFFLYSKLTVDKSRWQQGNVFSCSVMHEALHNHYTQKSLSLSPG

Regarding Aflibercept (Fc fusion), in assay [1], the HRMEC proliferation (RealTime-Glo, relative to PBS) with 10 μg/ml galectin-1 for 48 h with 7.5 μg/ml aflibercept (2.77 without aflibercept) amounted to 0.96 fold change.
Regarding “GST-fused galectin-1 protein (from UniProt P09382 1-135) (natural protein)”, in assay [2], the Kd came out at 0.869 µM. In assay [3], this substance showed an equilibrium dissociation constant (Kd) of 0.868 µM, a koff of 0.00531 s⁻¹ and a kon of 6120 M⁻¹ s⁻¹. Also, in assay [4], the Kd was found to be 0.0237 µM, the koff was 0.000371 s⁻¹ and the kon worked out at 15700 M⁻¹ s⁻¹.
